Columns and labels:
[1] = molecular target: T1, mouse intermediate-affinity IL-2 receptor IL-2Rβγ on cells (mouse, UniProt P16297 27-539; P34902 23-369); assay: cell-based or functional assay
T1 sequence (looked up) 1: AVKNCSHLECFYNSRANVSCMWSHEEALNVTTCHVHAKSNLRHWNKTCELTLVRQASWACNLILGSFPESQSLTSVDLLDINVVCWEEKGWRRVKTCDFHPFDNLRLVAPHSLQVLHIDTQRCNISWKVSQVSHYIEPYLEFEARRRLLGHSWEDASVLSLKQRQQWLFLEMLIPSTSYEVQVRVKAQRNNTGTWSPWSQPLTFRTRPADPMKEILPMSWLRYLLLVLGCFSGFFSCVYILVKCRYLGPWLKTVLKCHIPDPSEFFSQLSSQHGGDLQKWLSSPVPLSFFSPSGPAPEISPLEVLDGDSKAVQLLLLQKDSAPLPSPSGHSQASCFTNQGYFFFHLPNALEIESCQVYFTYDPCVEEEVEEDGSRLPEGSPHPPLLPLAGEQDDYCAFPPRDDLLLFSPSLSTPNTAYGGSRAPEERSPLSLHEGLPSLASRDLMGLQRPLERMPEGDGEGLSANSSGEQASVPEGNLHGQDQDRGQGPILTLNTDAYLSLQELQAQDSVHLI
T1 sequence (looked up) 2: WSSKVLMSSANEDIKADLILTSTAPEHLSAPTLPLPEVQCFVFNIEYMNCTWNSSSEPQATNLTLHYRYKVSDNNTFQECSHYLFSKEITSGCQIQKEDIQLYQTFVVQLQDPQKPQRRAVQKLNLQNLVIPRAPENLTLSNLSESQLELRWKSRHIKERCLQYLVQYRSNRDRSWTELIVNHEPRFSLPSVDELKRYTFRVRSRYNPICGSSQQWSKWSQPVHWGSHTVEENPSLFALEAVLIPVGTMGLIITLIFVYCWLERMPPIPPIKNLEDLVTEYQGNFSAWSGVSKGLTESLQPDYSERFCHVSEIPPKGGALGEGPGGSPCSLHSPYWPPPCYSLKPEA

[2] = molecular target: T2, mouse high-affinity IL-2 receptor IL-2Rαβγ on cells (mouse, UniProt P01590 22-268; P16297 27-539; P34902 23-369); assay: cell-based or functional assay
T2 sequence (looked up) 1: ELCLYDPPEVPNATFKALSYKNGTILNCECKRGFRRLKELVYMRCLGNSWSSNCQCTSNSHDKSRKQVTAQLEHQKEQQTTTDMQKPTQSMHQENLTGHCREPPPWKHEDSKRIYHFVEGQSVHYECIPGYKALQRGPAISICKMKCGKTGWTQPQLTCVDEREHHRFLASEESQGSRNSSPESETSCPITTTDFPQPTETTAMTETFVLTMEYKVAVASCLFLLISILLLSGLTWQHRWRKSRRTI
T2 sequence (looked up) 2: T1 sequence (looked up) 1
T2 sequence (looked up) 3: T1 sequence (looked up) 2

[3] = molecular target: T3, Human IL-2Rβ&IL-2Rα&IL-2Rγ protein (human, UniProt P14784 27-239; P01589 22-217; P31785 23-262, limits assumed); assay: SPR (Biacore, receptor on CM5 chip, IL-2 as analyte), 1:1 binding
T3 construct: Trimeric receptor protein used as SPR ligand; also called IL-2Rαβγ; Human IL-2RB&IL-2RA&IL-2RG
T3 sequence (looked up) 1: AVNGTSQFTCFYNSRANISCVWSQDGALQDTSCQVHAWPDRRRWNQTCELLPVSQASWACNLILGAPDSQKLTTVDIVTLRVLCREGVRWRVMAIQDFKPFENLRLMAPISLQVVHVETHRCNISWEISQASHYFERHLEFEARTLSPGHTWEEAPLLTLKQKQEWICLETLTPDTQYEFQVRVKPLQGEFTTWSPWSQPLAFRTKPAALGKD
T3 sequence (looked up) 2: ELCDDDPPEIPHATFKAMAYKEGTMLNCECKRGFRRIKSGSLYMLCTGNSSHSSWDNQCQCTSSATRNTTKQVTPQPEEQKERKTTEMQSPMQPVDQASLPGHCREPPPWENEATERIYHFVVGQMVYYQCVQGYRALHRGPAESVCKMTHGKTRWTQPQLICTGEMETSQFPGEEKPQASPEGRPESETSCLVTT
T3 sequence (looked up) 3: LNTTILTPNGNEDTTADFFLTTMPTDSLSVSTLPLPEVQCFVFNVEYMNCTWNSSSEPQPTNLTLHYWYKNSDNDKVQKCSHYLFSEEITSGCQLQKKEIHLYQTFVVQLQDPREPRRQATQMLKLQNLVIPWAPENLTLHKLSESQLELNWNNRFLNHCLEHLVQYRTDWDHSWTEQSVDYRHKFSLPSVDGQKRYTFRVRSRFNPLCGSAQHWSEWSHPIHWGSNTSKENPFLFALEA
Experimental: (§1) The human IL-2 receptors used in this study included IL-2Rα/CD25, IL-2Rβ/CD122, common γ receptor/CD132, IL-2Rβ&IL-2Rγ heterodimer protein, and IL-2Rβ&IL-2Rα&IL-2Rγ protein. The IL-2 receptor proteins were immobilized on a Biacore™ sensor chip CM5 according to manufacturer's protocol. […] The resulting sensorgrams were analyzed with the native instrument software to calculate the binding affinities.

[4] = molecular target: T4, Human IL-2Rβ&IL-2Rγ heterodimer protein (human, UniProt P14784 27-239; P31785 23-262, limits assumed); assay: as above
T4 construct: Heterodimer protein used as SPR ligand; also called IL-2Rβγ; Human IL-2RB&G
T4 sequence (looked up) 1: T3 sequence (looked up) 1
T4 sequence (looked up) 2: T3 sequence (looked up) 3
Experimental: as §1

% pSTAT5 in mouse splenocytes at High IL-2v concentration (25 nM per paragraph 254); western blot, pSTAT5/STAT5 normalised to 001 High [1]: 126%
% pSTAT5 in mouse splenocytes at Low IL-2v concentration (2.5 nM per paragraph 254); western blot, pSTAT5/STAT5 normalised to 001 High [2]: 22.8%
Kd [3]: 0.575 nM
koff [3]: 0.000732 s⁻¹
kon [3]: 1.27e+06 M⁻¹ s⁻¹
Kd [4]: 0.467 nM
koff [4]: 0.00106 s⁻¹
kon [4]: 2.28e+06 M⁻¹ s⁻¹
B1: CP-trIL-2 012 (ligand)
chain: PTSSSTKKTQLQLEHLLLDLQMILNGINNYKNPLRPRDLISNINVIVLELKGSETTELKHLQSLEEELKDLEEVLNLAQSKNFHTIVEFLNRWITFSQSIISTLT
notes: H1-H3-H2-H4; loops 1 and 2 removed; de-Ala1, C58S, C125S, P65D

— US20250163117A1 (CURE GENETICS, published 2025)
